Results: ChEMBL document CHEMBL1135258, “Substrate spectrum of tyrocidine thioesterase probed with randomized peptide N-acetylcysteamine thioesters” (Bioorg Med Chem Lett, 2002)

Assays:
Details in all cases: Brevibacillus brevis
[1] = substrate: CC(=O)NCCSC(=O)[C@H](CC(C)C)NC(=O)[C@H](CCCN)NC(=O)[C@@H](NC(=O)[C@H](Cc1ccc(O)cc1)NC(=O)[C@H](CCC(N)=O)NC(=O)[C@H](CC(N)=O)NC(=O)[C@H](CO)NC(=O)[C@H](Cc1ccccc1)NC(=O)[C@@H]1CCCN1C(=O)[C@H](N)Cc1ccccc1)C(C)C; experiment: (§1) Apparent kinetic constant (Km) determined for tyrocidine thioesterase amplified from Bacillus brevis (ATCC8185)
[2] = substrate: CC(=O)NCCSC(=O)[C@H](CC(C)C)NC(=O)[C@H](CCCN)NC(=O)[C@@H](NC(=O)[C@H](Cc1ccc(O)cc1)NC(=O)[C@H](CCC(N)=O)NC(=O)[C@H](CC(N)=O)NC(=O)[C@H](Cc1ccc(O)cc1)NC(=O)[C@H](Cc1ccccc1)NC(=O)[C@@H]1CCCN1C(=O)[C@H](N)Cc1ccccc1)C(C)C; experiment: as §1
[3] = substrate: CC[C@@H](C)[C@H](NC(=O)[C@H](CC(N)=O)NC(=O)[C@@H](Cc1ccccc1)NC(=O)[C@H](Cc1ccccc1)NC(=O)[C@@H]1CCCN1C(=O)[C@H](N)Cc1ccccc1)C(=O)N[C@@H](Cc1ccc(O)cc1)C(=O)N[C@H](C(=O)N[C@@H](CCCN)C(=O)N[C@@H](CC(C)C)C(=O)SCCNC(C)=O)C(C)C; experiment: as §1
[4] = substrate: CC(=O)NCCSC(=O)[C@H](CC(C)C)NC(=O)[C@H](CCCN)NC(=O)[C@@H](NC(=O)[C@H](Cc1ccc(O)cc1)NC(=O)[C@H](CCC(N)=O)NC(=O)[C@H](CC(N)=O)NC(=O)[C@H](CS)NC(=O)[C@H](Cc1ccccc1)NC(=O)[C@@H]1CCCN1C(=O)[C@H](N)Cc1ccccc1)C(C)C; experiment: as §1
[5] = substrate: CC(=O)NCCSC(=O)[C@H](CC(C)C)NC(=O)[C@H](CCCN)NC(=O)[C@H](CC(N)=O)NC(=O)[C@H](Cc1ccc(O)cc1)NC(=O)[C@H](CCC(N)=O)NC(=O)[C@H](CC(N)=O)NC(=O)[C@@H](Cc1ccccc1)NC(=O)[C@H](Cc1ccccc1)NC(=O)[C@@H]1CCCN1C(=O)[C@H](N)Cc1ccccc1; experiment: as §1
[6] = substrate: CC(=O)NCCSC(=O)[C@H](CC(C)C)NC(=O)[C@H](CCCN)NC(=O)[C@@H](NC(=O)[C@H](Cc1ccc(O)cc1)NC(=O)[C@H](CCC(N)=O)NC(=O)[C@H](CC(N)=O)NC(=O)[C@H](CC(N)=O)NC(=O)[C@H](Cc1ccccc1)NC(=O)[C@@H]1CCCN1C(=O)[C@H](N)Cc1ccccc1)C(C)C; experiment: as §1
[7] = substrate: CC(=O)NCCSC(=O)[C@H](CC(C)C)NC(=O)[C@H](CCCN)NC(=O)[C@@H](NC(=O)[C@H](Cc1ccc(O)cc1)NC(=O)[C@H](CC(C)C)NC(=O)[C@H](CC(N)=O)NC(=O)[C@@H](Cc1ccccc1)NC(=O)[C@H](Cc1ccccc1)NC(=O)[C@@H]1CCCN1C(=O)[C@H](N)Cc1ccccc1)C(C)C; experiment: as §1
[8] = substrate: CC(=O)NCCSC(=O)[C@H](CC(C)C)NC(=O)[C@H](CCCN)NC(=O)[C@@H](NC(=O)[C@H](Cc1ccc(O)cc1)NC(=O)[C@H](CCC(N)=O)NC(=O)[C@H](CC(N)=O)NC(=O)[C@H](CCC(N)=O)NC(=O)[C@H](Cc1ccccc1)NC(=O)[C@@H]1CCCN1C(=O)[C@H](N)Cc1ccccc1)C(C)C; experiment: as §1
[9] = substrate: CC(=O)NCCSC(=O)[C@H](CC(C)C)NC(=O)[C@H](CCCN)NC(=O)[C@@H](NC(=O)[C@H](Cc1ccc(O)cc1)NC(=O)[C@H](CCC(N)=O)NC(=O)[C@H](CC(N)=O)NC(=O)[C@H](Cc1c[nH]cn1)NC(=O)[C@H](Cc1ccccc1)NC(=O)[C@@H]1CCCN1C(=O)[C@H](N)Cc1ccccc1)C(C)C; experiment: as §1
[10] = substrate: CSCC[C@H](NC(=O)[C@H](Cc1ccccc1)NC(=O)[C@@H]1CCCN1C(=O)[C@H](N)Cc1ccccc1)C(=O)N[C@@H](CC(N)=O)C(=O)N[C@@H](CCC(N)=O)C(=O)N[C@@H](Cc1ccc(O)cc1)C(=O)N[C@H](C(=O)N[C@@H](CCCN)C(=O)N[C@@H](CC(C)C)C(=O)SCCNC(C)=O)C(C)C; experiment: as §1
[11] = substrate: CC(=O)NCCSC(=O)[C@H](CC(C)C)NC(=O)[C@H](CCCN)NC(=O)[C@@H](NC(=O)[C@H](Cc1ccc(O)cc1)NC(=O)[C@H](CCC(N)=O)NC(=O)[C@H](CC(N)=O)NC(=O)[C@H](CCCN=C(N)N)NC(=O)[C@H](Cc1ccccc1)NC(=O)[C@@H]1CCCN1C(=O)[C@H](N)Cc1ccccc1)C(C)C; experiment: as §1
[12] = substrate: CC(=O)NCCSC(=O)[C@H](CC(C)C)NC(=O)[C@H](CCCN)NC(=O)[C@@H](NC(=O)[C@H](Cc1ccc(O)cc1)NC(=O)[C@H](CC(N)=O)NC(=O)[C@H](CC(N)=O)NC(=O)[C@@H](Cc1ccccc1)NC(=O)[C@H](Cc1ccccc1)NC(=O)[C@@H]1CCCN1C(=O)[C@H](N)Cc1ccccc1)C(C)C; experiment: as §1
[13] = substrate: CC(=O)NCCSC(=O)[C@H](CC(C)C)NC(=O)[C@H](CCCN)NC(=O)[C@@H](NC(=O)[C@H](Cc1ccc(O)cc1)NC(=O)[C@H](CCC(N)=O)NC(=O)[C@H](CC(N)=O)NC(=O)CNC(=O)[C@H](Cc1ccccc1)NC(=O)[C@@H]1CCCN1C(=O)[C@H](N)Cc1ccccc1)C(C)C; experiment: as §1
[14] = substrate: CC(=O)NCCSC(=O)[C@H](CC(C)C)NC(=O)[C@H](CCCN)NC(=O)[C@@H](NC(=O)[C@H](Cc1ccc(O)cc1)NC(=O)[C@H](CCC(N)=O)NC(=O)[C@H](CC(N)=O)NC(=O)[C@@H]1CCCN1C(=O)[C@H](Cc1ccccc1)NC(=O)[C@@H]1CCCN1C(=O)[C@H](N)Cc1ccccc1)C(C)C; experiment: as §1
[15] = substrate: CC(=O)NCCSC(=O)[C@H](CC(C)C)NC(=O)[C@H](CCCN)NC(=O)[C@H](CCC(N)=O)NC(=O)[C@H](Cc1ccc(O)cc1)NC(=O)[C@H](CCC(N)=O)NC(=O)[C@H](CC(N)=O)NC(=O)[C@@H](Cc1ccccc1)NC(=O)[C@H](Cc1ccccc1)NC(=O)[C@@H]1CCCN1C(=O)[C@H](N)Cc1ccccc1; experiment: as §1

B1: Thioesterase GrsT homolog tycF (Brevibacillus brevis), O30412 (protein)
chain: MKLFCFPYAGGLPGIYYSWKSRLPPTFLEIDAFEVRPHIPQPNRDVFLPTSFYELLEDVCDRITPALTETPFAFFGHSMGGLVAFELTRKLMQKGAPLPQHLFLSASRAPHAYGKLAKTYNLPHDEFVEALRKLGGTPDDVLENQELLELFLPILRADFQAVQTYEMNPDLPRQVPVNMTVLYGTEDTIALEDIWAWRDYCQGACQFFPVSGGHFFIHHQTSPILEIIQNVLKEEKTVAIHSSF
What does the source list for B1?
Km [1]: 14 µM; Km [2]: 65 µM; Km [3]: 82 µM; Km [4]: 27 µM; Km [5]: 55 µM; Km [6]: 19 µM; Km [7]: 135 µM; Km [8]: 16 µM; Km [9]: 82 µM; Km [10]: 20 µM; Km [11]: 24 µM; Km [12]: 112 µM; Km [13]: 22 µM; Km [14]: 132 µM; Km [15]: 62 µM
